Assay results from PMC9482650, “Quantitative fragmentomics allow affinity mapping of interactomes” (Nature Communications, 2022).

T1: DFNB31_2, Q9P202
T1 sequence (Q9P202 274-371, limits assumed, looked up): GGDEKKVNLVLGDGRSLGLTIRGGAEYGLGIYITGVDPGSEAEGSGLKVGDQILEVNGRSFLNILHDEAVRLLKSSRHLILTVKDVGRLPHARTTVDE

T2: GRIP1_2, Q9Y3R0
T2 sequence (Q9Y3R0 145-248, limits assumed, looked up): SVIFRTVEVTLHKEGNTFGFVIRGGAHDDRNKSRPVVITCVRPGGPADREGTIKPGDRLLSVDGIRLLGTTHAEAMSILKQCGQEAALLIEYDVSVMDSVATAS

T3: GRIP1_7, Q9Y3R0
T3 sequence (Q9Y3R0 999-1096, limits assumed, looked up): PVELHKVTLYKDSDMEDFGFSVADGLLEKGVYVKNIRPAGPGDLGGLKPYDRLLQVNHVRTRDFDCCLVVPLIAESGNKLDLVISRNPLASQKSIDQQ

T4: LRRC7, Q96NW7
T4 sequence (Q96NW7 1440-1537, limits assumed, looked up): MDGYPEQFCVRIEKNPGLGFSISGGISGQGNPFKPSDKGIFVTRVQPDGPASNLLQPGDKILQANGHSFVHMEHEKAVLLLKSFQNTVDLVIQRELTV

T5: MPDZ_10, O75970
T5 sequence (O75970 1624-1722, limits assumed, looked up): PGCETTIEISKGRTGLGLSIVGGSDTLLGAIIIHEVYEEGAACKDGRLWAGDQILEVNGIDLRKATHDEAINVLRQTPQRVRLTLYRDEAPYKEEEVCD

T6: MPDZ_5, O75970
T6 sequence (O75970 695-796, limits assumed, looked up): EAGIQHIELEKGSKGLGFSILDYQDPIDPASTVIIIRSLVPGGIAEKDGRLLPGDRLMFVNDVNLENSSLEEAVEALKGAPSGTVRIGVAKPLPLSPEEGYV

T7: MPP6, Q9NZW5
T7 sequence (Q9NZW5 125-219, limits assumed, looked up): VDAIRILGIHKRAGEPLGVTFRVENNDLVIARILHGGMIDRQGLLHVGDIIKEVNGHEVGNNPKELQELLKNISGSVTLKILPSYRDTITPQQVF

T8: MPP7, Q5T2T1
T8 sequence (Q5T2T1 134-230, limits assumed, looked up): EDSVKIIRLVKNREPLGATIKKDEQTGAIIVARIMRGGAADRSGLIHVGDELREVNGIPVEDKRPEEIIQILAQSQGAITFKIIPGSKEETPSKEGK

T9: RADIL, Q96JH8
T9 sequence (Q96JH8 971-1071, limits assumed, looked up): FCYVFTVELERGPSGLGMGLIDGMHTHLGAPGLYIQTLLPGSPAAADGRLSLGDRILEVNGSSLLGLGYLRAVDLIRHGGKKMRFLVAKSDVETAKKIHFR

T10: RAPGEF6, Q8TEU7
T10 sequence (Q8TEU7 525-625, limits assumed, looked up): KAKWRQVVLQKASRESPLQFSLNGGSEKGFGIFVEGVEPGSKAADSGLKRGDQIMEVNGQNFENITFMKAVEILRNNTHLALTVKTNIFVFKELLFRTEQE


Columns and labels:
Experiment in all cases: holdup assay
Design in all cases: key: below the threshold = too weak to quantify, mostly under pKd 3.1 to 4
Details in all cases: plain residues with an end cap or a label only (N-terminal biotin on a linker: ado-ado)
CASK, O14936 = target: CASK, O14936
DFNB31_2, Q9P202 = target: T1, DFNB31_2, Q9P202
DLG4_3, P78352 = target: DLG4_3, P78352
FRMPD2_3, Q68DX3 = target: FRMPD2_3, Q68DX3
FRMPD4, Q14CM0 = target: FRMPD4, Q14CM0
GIPC2, Q8TF65 = target: GIPC2, Q8TF65
GRIP1_2, Q9Y3R0 = target: T2, GRIP1_2, Q9Y3R0
GRIP1_7, Q9Y3R0 = target: T3, GRIP1_7, Q9Y3R0
GRIP2_6, Q9C0E4 = target: GRIP2_6, Q9C0E4
HTRA2, O43464 = target: HTRA2, O43464
IL16_1, Q14005 = target: IL16_1, Q14005
Inadl_2, Q8NI35 = target: Inadl_2, Q8NI35
Inadl_4, Q8NI35 = target: Inadl_4, Q8NI35
LDB3, O75112 = target: LDB3, O75112
LRRC7, Q96NW7 = target: T4, LRRC7, Q96NW7
MAGI2_3, Q86UL8 = target: MAGI2_3, Q86UL8
MAGI2_5, Q86UL8 = target: MAGI2_5, Q86UL8
MAGI3_2, Q5TCQ9 = target: MAGI3_2, Q5TCQ9
MAST1, Q9Y2H9 = target: MAST1, Q9Y2H9
MPDZ_10, O75970 = target: T5, MPDZ_10, O75970
MPDZ_5, O75970 = target: T6, MPDZ_5, O75970
MPP6, Q9NZW5 = target: T7, MPP6, Q9NZW5
MPP7, Q5T2T1 = target: T8, MPP7, Q5T2T1
NHERF4_1, Q86UT5-2 = target: NHERF4_1, Q86UT5-2
PDZRN4_1, Q6ZMN7 = target: PDZRN4_1, Q6ZMN7
PTPN3, P26045 = target: PTPN3, P26045
RADIL, Q96JH8 = target: T9, RADIL, Q96JH8
RAPGEF6, Q8TEU7 = target: T10, RAPGEF6, Q8TEU7

Chain of MAGI3_2, Q5TCQ9 (Q5TCQ9 398-503): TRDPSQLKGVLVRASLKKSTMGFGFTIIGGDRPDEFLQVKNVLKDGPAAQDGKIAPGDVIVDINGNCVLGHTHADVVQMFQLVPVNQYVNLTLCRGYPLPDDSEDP
Chain of Inadl_4, Q8NI35 (Q8NI35 547-651): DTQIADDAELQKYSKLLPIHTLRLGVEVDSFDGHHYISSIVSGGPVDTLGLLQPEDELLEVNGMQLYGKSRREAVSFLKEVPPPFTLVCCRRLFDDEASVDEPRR
Chain of PTPN3, P26045 (P26045 505-587): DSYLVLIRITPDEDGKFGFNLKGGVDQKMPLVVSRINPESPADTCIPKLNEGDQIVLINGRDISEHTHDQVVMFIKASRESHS
Chain of FRMPD2_3, Q68DX3 (Q68DX3 1073-1166): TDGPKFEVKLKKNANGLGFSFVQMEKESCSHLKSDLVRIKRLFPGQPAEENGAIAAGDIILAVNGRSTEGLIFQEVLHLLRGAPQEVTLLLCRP
Chain of Inadl_2, Q8NI35 (Q8NI35 238-335): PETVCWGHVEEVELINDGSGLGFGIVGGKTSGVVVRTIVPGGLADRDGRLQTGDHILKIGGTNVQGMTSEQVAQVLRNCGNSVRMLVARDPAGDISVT
Chain of CASK, O14936 (O14936 487-570): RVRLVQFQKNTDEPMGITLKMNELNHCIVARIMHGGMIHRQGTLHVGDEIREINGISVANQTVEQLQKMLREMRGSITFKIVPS
Chain of MAST1, Q9Y2H9 (Q9Y2H9 962-1065): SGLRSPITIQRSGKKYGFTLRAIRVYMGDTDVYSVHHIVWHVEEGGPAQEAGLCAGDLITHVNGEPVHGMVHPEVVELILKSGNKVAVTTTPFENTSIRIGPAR
Chain of MAGI2_5, Q86UL8 (Q86UL8 915-1017): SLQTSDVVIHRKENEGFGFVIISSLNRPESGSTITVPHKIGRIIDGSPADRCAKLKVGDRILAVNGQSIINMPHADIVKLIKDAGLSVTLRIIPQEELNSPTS
Chain of IL16_1, Q14005 (Q14005 210-306): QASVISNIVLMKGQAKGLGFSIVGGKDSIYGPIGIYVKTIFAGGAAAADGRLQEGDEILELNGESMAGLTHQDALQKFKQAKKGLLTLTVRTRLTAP
Chain of FRMPD4, Q14CM0 (Q14CM0 67-160): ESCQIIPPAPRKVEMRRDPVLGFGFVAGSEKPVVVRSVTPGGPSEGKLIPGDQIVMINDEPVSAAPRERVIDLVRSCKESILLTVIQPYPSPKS
Chain of DLG4_3, P78352 (P78352 306-403): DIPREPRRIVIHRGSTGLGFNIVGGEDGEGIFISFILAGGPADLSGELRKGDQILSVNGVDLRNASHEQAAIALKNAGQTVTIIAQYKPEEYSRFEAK
Chain of MAGI2_3, Q86UL8 (Q86UL8 600-682): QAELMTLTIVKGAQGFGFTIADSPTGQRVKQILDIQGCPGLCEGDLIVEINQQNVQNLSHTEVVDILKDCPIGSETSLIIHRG
Chain of HTRA2, O43464 (O43464 355-458): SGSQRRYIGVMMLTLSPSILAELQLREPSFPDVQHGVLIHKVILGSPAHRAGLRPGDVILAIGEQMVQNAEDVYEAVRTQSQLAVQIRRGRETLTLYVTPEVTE
Chain of LDB3, O75112 (O75112 1-94): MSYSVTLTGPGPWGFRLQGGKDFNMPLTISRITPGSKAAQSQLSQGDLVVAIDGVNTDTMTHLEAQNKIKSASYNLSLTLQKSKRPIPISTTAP
Chain of PDZRN4_1, Q6ZMN7 (Q6ZMN7 213-318): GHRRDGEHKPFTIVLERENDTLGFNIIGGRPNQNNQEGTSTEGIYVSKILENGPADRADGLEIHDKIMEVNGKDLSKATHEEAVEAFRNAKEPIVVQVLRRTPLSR
Chain of GRIP2_6, Q9C0E4 (Q9C0E4 648-740): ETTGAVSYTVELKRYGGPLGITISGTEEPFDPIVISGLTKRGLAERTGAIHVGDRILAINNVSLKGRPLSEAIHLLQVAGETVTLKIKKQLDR
Chain of NHERF4_1, Q86UT5-2 (Q86UT5 other isoform, or with tags, fused parts or gaps): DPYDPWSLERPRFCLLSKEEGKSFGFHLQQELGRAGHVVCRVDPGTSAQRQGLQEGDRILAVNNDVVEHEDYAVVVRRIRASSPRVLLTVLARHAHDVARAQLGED
Chain of GIPC2, Q8TF65 (Q8TF65 112-203): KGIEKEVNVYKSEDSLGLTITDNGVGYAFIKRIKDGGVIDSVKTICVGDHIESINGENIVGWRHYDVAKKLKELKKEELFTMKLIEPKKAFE

| pKd (CASK, O14936) | pKd (DFNB31_2, Q9P202) | pKd (DLG4_3, P78352) | pKd (FRMPD2_3, Q68DX3) | pKd (FRMPD4, Q14CM0) | pKd (GIPC2, Q8TF65) | pKd (GRIP1_2, Q9Y3R0) | pKd (GRIP1_7, Q9Y3R0) | pKd (GRIP2_6, Q9C0E4) | pKd (HTRA2, O43464) | pKd (IL16_1, Q14005) | pKd (Inadl_2, Q8NI35) | pKd (Inadl_4, Q8NI35) | pKd (LDB3, O75112) | pKd (LRRC7, Q96NW7) | pKd (MAGI2_3, Q86UL8) | pKd (MAGI2_5, Q86UL8) | pKd (MAGI3_2, Q5TCQ9) | pKd (MAST1, Q9Y2H9) | pKd (MPDZ_10, O75970) | Binder | also measured |
| --- | --- | --- | --- | --- | --- | --- | --- | --- | --- | --- | --- | --- | --- | --- | --- | --- | --- | --- | --- | --- | --- |
| below the threshold | below the threshold | below the threshold | below the threshold | 4.12 | below the threshold | 3.63 | below the threshold | below the threshold | below the threshold | below the threshold | below the threshold | below the threshold | below the threshold | below the threshold | 3.59 | 4.4 | below the threshold | 5.01 | below the threshold | LLQEEWETVM [PTH1R, Q03431] | pKd (MPDZ_5, O75970): below the threshold; pKd (MPP6, Q9NZW5): below the threshold; pKd (MPP7, Q5T2T1): below the threshold; pKd (NHERF4_1, Q86UT5-2): 3.56; pKd (PDZRN4_1, Q6ZMN7): 4.2; pKd (PTPN3, P26045): 4.92; pKd (RADIL, Q96JH8): 3.99; pKd (RAPGEF6, Q8TEU7): below the threshold |
| below the threshold | below the threshold | below the threshold | below the threshold | below the threshold | below the threshold | below the threshold | below the threshold | below the threshold | below the threshold | below the threshold | below the threshold | below the threshold | below the threshold | below the threshold | below the threshold | 4.1 | below the threshold | 4.77 | below the threshold | NNMAFETTHF [SLC5A12, Q1EHB4] | pKd (MPDZ_5, O75970): below the threshold; pKd (MPP6, Q9NZW5): below the threshold; pKd (MPP7, Q5T2T1): below the threshold; pKd (NHERF4_1, Q86UT5-2): 4.35; pKd (PDZRN4_1, Q6ZMN7): below the threshold; pKd (PTPN3, P26045): below the threshold; pKd (RADIL, Q96JH8): below the threshold; pKd (RAPGEF6, Q8TEU7): below the threshold |

Second part, the binder before the results:

| Binder | pKd (CASK, O14936) | pKd (DFNB31_2, Q9P202) | pKd (DLG4_3, P78352) | pKd (FRMPD2_3, Q68DX3) | pKd (FRMPD4, Q14CM0) | pKd (GIPC2, Q8TF65) | pKd (GRIP1_2, Q9Y3R0) | pKd (GRIP1_7, Q9Y3R0) | pKd (GRIP2_6, Q9C0E4) | pKd (HTRA2, O43464) | pKd (IL16_1, Q14005) | pKd (Inadl_2, Q8NI35) | pKd (Inadl_4, Q8NI35) | pKd (LDB3, O75112) | pKd (LRRC7, Q96NW7) | pKd (MAGI2_3, Q86UL8) | pKd (MAGI2_5, Q86UL8) | pKd (MAGI3_2, Q5TCQ9) | pKd (MAST1, Q9Y2H9) | pKd (MPDZ_10, O75970) | also measured |
| --- | --- | --- | --- | --- | --- | --- | --- | --- | --- | --- | --- | --- | --- | --- | --- | --- | --- | --- | --- | --- | --- |
| SSSVNVSSNL [CXCR1, P25024] | below the threshold | below the threshold | below the threshold | below the threshold | 3.57 | below the threshold | below the threshold | below the threshold | below the threshold | below the threshold | below the threshold | below the threshold | below the threshold | below the threshold | below the threshold | 3.5 | below the threshold | below the threshold | 4.45 | below the threshold | pKd (MPDZ_5, O75970): below the threshold; pKd (MPP6, Q9NZW5): below the threshold; pKd (MPP7, Q5T2T1): below the threshold; pKd (NHERF4_1, Q86UT5-2): 3.74; pKd (PDZRN4_1, Q6ZMN7): below the threshold; pKd (PTPN3, P26045): 4.48; pKd (RADIL, Q96JH8): below the threshold; pKd (RAPGEF6, Q8TEU7): below the threshold |
| HLSTRQGTCV [ATRNL1, Q5VV63] | below the threshold | below the threshold | 3.87 | below the threshold | 3.51 | below the threshold | below the threshold | below the threshold | below the threshold | below the threshold | 3.63 | below the threshold | below the threshold | below the threshold | 3.63 | below the threshold | 4.04 | 5.16 | 4.35 | 3.75 | pKd (MPDZ_5, O75970): 3.66; pKd (MPP6, Q9NZW5): below the threshold; pKd (MPP7, Q5T2T1): below the threshold; pKd (NHERF4_1, Q86UT5-2): below the threshold; pKd (PDZRN4_1, Q6ZMN7): 3.76; pKd (PTPN3, P26045): 4.54; pKd (RADIL, Q96JH8): 4.28; pKd (RAPGEF6, Q8TEU7): below the threshold |
